Kd data for two substances are collected here from article PMC5650921.

For orientation: Kd means the equilibrium constant for the complex coming apart.

Bounds are passed on as bounds.

Assay [1] addresses EREG/sEGFR501 complex (human) (UniProt P00533). In words: small-angle X-ray scattering.
Assay [2] deals with sEGFR501 1-501 (Homo sapiens) (UniProt P00533). The settings on record: cited from earlier work.

“EREG/sEGFR501 complex (from UniProt P00533 25-525; O14944 56-116)”: in assay [1], the Kd is greater than 200 µM.
As for sEGFR501 1-501 (from UniProt P00533), in assay [2], the equilibrium dissociation constant (Kd) is 3000 nM.
